Reference: paper PMC10183053 (Journal of biomolecular structure & dynamics, 2022)
Read-outs that look alike come from different tables or passages of the source.

B1: human Hsp90α_293–714_W320A mutant (domain or fragment)
chain: not shown
B2: human Hsp90α_293–699 (wild type Hsp90α middle/C-terminal domain) (domain or fragment)
chain: not shown

Tests used:
crystal structure [1] = molecular target: the molecule itself; test: crystal structure
crystal structure [2] = molecular target: the molecule itself; test: crystal structure; remark: listed apart in the source

Row | Protein | stoichiometry N (crystal structure [1]) | stoichiometry N (crystal structure [2])
1 | B1 | 2 | –
2 | B2 | – | 6
